Positions count from the first letter of the chain named.
B1: antibody 992 (antibody, human IgG1, kappa, V domains shown)
VH: EVQLQQPGSELVRPGASVKLSCKASGYTFTSYWMHWVKQRPGQGLEWIGNIYPGSRSTNYDEKFKSKATLTVDTSSSTAYMQLSSLTSEDSAVYYCTRNGDYYVSSGDAMDYWGQGTSVTVSS
VL: DIQMTQTTSSLSASLGDRVTISCRTSQDIGNYLNWYQQKPDGTVKLLIYYTSRLHSGVPSRFSGSGSGTDFSLTINNVEQEDVATYFCQHYNTVPPTFGGGTKLEIKR
notes: Chimeric mouse/human IgG1 kappa; the VL entry includes the human kappa constant region
B2: antibody 1320 (antibody, human IgG1, kappa, V domains shown)
VH: QVQLQQPGAELVKPGASMKLSCKASGYTFTNYWMHWVKQRPGQGLEWIGEINPSNGRTNYNEKFKSKATLTVDKSSSTAYMQLSSLTSEDSGVYYCAKGGNYYDYDWDYWGQGTTLTVSS
VL: DIQMTQTTSSLSASLGDRVTISCSASQDISNYLNWYQQKPDGTVKLLIYHTSTLHSGVPSRFSGSGSGTDYSLTISNLEPEDIATYYCQQYSKLPWTFGGGTKLEIKR
notes: Chimeric IgG1 kappa
B3: antibody 1347 (antibody, human IgG1, kappa, V domains shown)
VH: QVQLKESGPGLVAPSQSLSITCTVSGFSLTGHGVNWVRQPPGKGLEWLGMIWGDGSTDYNSTLKSRLSISKDNSKSQVFLKMNSLQTDDTARYYCARGYGYLYYFDYWGQGTTLTVSS
VL: ENVLTQSPAIMSASPGEKVTMTCRASSSVSSSYLHWYQQKSGASPKLWIYSTSNLASGVPARFSGSGSGTSYSLTVNSVETEDAATYYCHQYSGFPFTFGSGTKLELKR
notes: Chimeric IgG1 kappa
B4: antibody 1261 (antibody, human IgG1, kappa, V domains shown)
VH: EVQLVESGGGLVKPGGSLKLSCAVSGFTFSSYVMSWVRQTPEKRLEWVATITSGGRNIYYLDSVKGRFTISRDNAKNTLYLQMSSLRSEDTAMYYCARHEDYRYDGYYAMDYWGQGTSVTVSS
VL: QIVLTQSPAIMSASPGEKVTITCSASSSVSYMHWFQQKPGTSPKLWIYSTSNLASGVPARFSGSGSGTSYSLTISRMEAEDAATYYCQQRSSYPYTFGGGTKLELKR
notes: Chimeric IgG1 kappa
B5: antibody 1030 (antibody, human IgG1, kappa, V domains shown)
VH: EVQLVESGGGLVKPGGSLKLSCAASGFTFSSYALSWVRQTPERRLEWVASISGVGSTYFPDSVKGRFTMSRDNARNILYLQMSSLRSEDTAMYYCARGSDGYFYAMDYWGQGTSVTVSS
VL: DIVLTQSPASLAVSLGQRATISCRASKSVSTSGYSFMHWYQLKPGQPPKLLIYLASNLESGVPARFSGSGSGTDFTLNIHPVEEEDAATYYCQHSREFPLTFGGGTKLEIKR
notes: Chimeric IgG1 kappa
B6: antibody 1257 (antibody, human IgG1, kappa, V domains shown)
VH: EVQLQQSGPELVKPGASVKIPCKTSGYTFTDYNMAWVKQSHGKSLEWIGDIIPNNGGAIYNQKFKGKATLTVDKSSSTASMELRSLTSEDTAVYFCARKNIYYRYDGAGALDYWGQGTSVTVSS
VL: QIVLTQSPAIMSASPGEKVTMTCSASSSVSYIYWYQQKPGSSPRLLIYDASNLASGVPVRFSGSGSGTSYSLTISRMEAEDAATYYCQQWSSYPITFGSGTKLEIKR
notes: Chimeric IgG1 kappa
B7: antibody 1284 (antibody, human IgG1, kappa, V domains shown)
VH: QVQLQQPGAELVKPGASVKLSCKASGYTFTSDWMHWMKQRPGQGLEWIGEINPSNGRSSYNEKFKSKATLTVDKSSSTAYMQLSSLTSEDSAVYYCARIGGIYVETYWGQGTLVTVSS
VL: DIVLTQSPASLAVSLGQRATISCRASQSVSTSTYSYMHWYQQKSGQPPKLLIKYASNLESGVPARFSGSGSGTDFTLNIHPVEEEDTATYYCQHSWEIPWTFGGGTKLEIKR
notes: Chimeric IgG1 kappa
B8: antibody 1208 (antibody, human IgG1, kappa, V domains shown)
VH: EVQLVESGGGLVKPGGSLKLSCAASGFAFSSYDMSWVRQTPEKRLEWVAYIGSGDDNTHYPDSVKGRFTISRHNAKNTLYLQMSSLKSEDTAMYYCARQKYGNYGDTMDYWGQGTSVTVSS
VL: DVVMTQTPLSLPVSLGDQASISCRSSQSLVHSNGNTYLHWYLQKPGQSPKLLIYKVSNRFSGVPDRFSGSGSGTDFTLKISRVEAEDLGVYFCSQSTHVPTFGGGTKLEIKR
notes: Chimeric IgG1 kappa; also called clone 1208
B9: antibody 1344 (antibody, human IgG1, kappa, V domains shown)
VH: QVQLKESGPGLVAPSQSLSITCTVSGFSLTIYGVHWVRQPPGKGLEWLGVIWAGGNTNYNSALMSRLSISKDNSKSQVFLKMNSLQTDDTAMYFCARGYGYNLDYWGQGTTLTVSS
VL: B2 VL with D28G, H50Y, T53S, W96Y
notes: Chimeric IgG1 kappa
B10: antibody 1308 (antibody, human IgG1, kappa, V domains shown)
VH: EVQLQQSGAELVRPGSSVKISCKASGYAFSSYWMNWVRQRPGQGLEWIGQIYPGDGDTNYNGKFKGRATLTANKSSSTAYMQLSSLTSEDSAVYFCARRASSLYDVYPYYFDYWGQGTTLTVSS
VL: B2 VL with S24R, L46V, H50Y, T53R, P80Q, Y87F, Y91G, S92N, K93T, W96Y
notes: Chimeric IgG1 kappa
B11: antibody 1260 (antibody, human IgG1, kappa, V domains shown)
VH: B9 VH with I31T, N56S, S70K, F94Y, G98A, L103F
VL: B2 VL with D28G, S30T, H50Y, T51S, T53S, K93E, L94I, W96Y, I106L
notes: Chimeric IgG1 kappa

target: T1, full length Cynomolgus EGFR expressed on CHO cells (Cynomolgus monkey (Macaca fascicularis), UniProt P55245 25-1210 (rhesus entry)); assay: FACS on CHO cells transfected with full length Cynomolgus EGFR
T1 construct: The entry was cloned including the signal peptide; also called Cynomolgus full length EGFR
Description: Bound antibody was detected with a PE labelled goat F(ab′)₂ anti-human IgG FC. Gating was performed on uniform cells (SCC/FCS properties) expressing EGFR. Binding is expressed as % maximal antibody binding at 1 nM concentration.
Briefly quantitative FACS analysis was performed on a BD FACS array Bioanalyzer System to determine the number of EGFR molecules expressed on the surface of CHO cells transfected with either Human or Cynomolgus full length EGFR. […] Antibodies were incubated with cells for 14 hours on a shaker, to promote full antigen saturation at all antibody concentrations tested, while FACS buffer was added 0.02% NaN₃ and temperature kept at 4° C. to prevent receptor internalization. After incubation, cells were pelleted at 1200 RPM for 5 min at 4° C. and resuspended in 200 ul FACS buffer. Next cells were stained with a secondary Goat F(ab′)₂ anti-Human IgG FcGamma PE diluted 1:500 and incubated for 30 min at 4° C. on a shaker. Finally cells were washed twice in FACS buffer and analyzed on a BD FACS array Bioanalyzer System with gating on EGFR expressing CHO cells displaying uniform forward/side scatter properties.

| EC50 (read off the curve) | binding result | Binder |
| --- | --- | --- |
| ~0.01 nM |  | B1 |
|  | no binding (tested: 1 nM) | B2 |

target: T2, recombinant human EGFR extracellular domain with 6xHis (human, UniProt P00533 25-645); assay: SPR competition, EGFR ECD first saturated with mix N=6 1261+1347+992+1024+1030+1361
T2 construct: In-house produced; also called 6xHis EGFR ECD; soluble human EGFR ECD; not shown: 6xHis tag
Description: (§1) SPR analysis was performed on a Biacore 3000 machine containing four flow cells. A CM5 Biacore chip was conjugated with 10,000 Resonance units (Ru) polyclonal anti-His antibody to flow cells 1-4 according to the manufacturer's instructions. […] Immediately after antigen injection the maximal binding of the Anti-EGFR mAb without competition was established in each flow cell during a reference run. Briefly 5 μl antibody at a concentration of 40 μg/ml was injected over all flow cells with captured EGFR followed by stripping of the antibody/antigen complex with a low pH acid wash (10 sec. contact time with 10 mM Glycine-HCl, pH2). After the determination of Anti-EGFR antibody maximal binding to each flow cell, a competition run was performed during the same Biacore cycle. Flow cells were first saturated with EGFR ECD antigen followed by injection of different reference antibodies or Anti-EGFR antibodies into separate flow cells using the same antigen saturating conditions as outlined above. This step was immediately followed by a second injection of Anti-EGFR antibody over the flow cell saturated with EGFR antigen and competition antibody to minimize the dissociation of either antigen or blocking antibody. Then the antibody/antigen complexes were stripped off with a low pH acid wash (10 sec. contact time with 10 mM Glycine-HCl, pH 2) and the whole cycle beginning with the reference run was repeated with a new Anti-EGFR antibody. The degree of inhibition of tested Anti-EGFR antibodies were determined by comparing the Ru max value of the individual Anti-EGFR antibody before and after competition by introduction of report points recorded two seconds before and after injection of each sample.

| % inhibition | Rumax competition cycle | Binder |
| --- | --- | --- |
| 80% | 19 Ru | B3 |
| 95% | 7 Ru | B4 |
| 116% | -14 Ru | B1 |
| 87% | 12 Ru | B5 |

target: T3, full length human EGFR expressed on the cell surface (human, UniProt P00533 25-1210); assay: cell ELISA, IgG titrated on paraformaldehyde-fixed A431-NS cells
T3 construct: whole, on cells; also called EGFR on A431-NS cells; EGFR on HN5 cells
Description: Cell ELISA: The relative binding affinities defined as the molar concentration giving the half maximal OD (ED50) were determined by antibody titrations on A431-NS cells. Briefly, 10,000 A431-NS cells were grown in 96 well ELISA plates containing DMEM with added 0.5% FCS and 1% P/S at 37° C., 5% CO₂ overnight. […] Then 50 μl of a secondary Goat-anti-Human (Fab specific) HRP conjugate diluted 1:5000 in DMEM containing 1% BSA was added and incubated on ice for 30 min. Finally wells were washed four times with PBS and plates developed by adding 50 μl/well TMB Plus substrate and read at 620 nm every 5-15-30 min. After incubation with substrate the reaction was stopped by addition of 1 M H₂SO₄ and absorbance read at 450 nm. The functional affinity expressed as ED50 values were calculated by subtraction of the average background binding with secondary reagent only, followed by normalization of the binding curves by plotting % maximal binding relative to each antibody tested.

| Log ED50 | Binder |
| --- | --- |
| -0.56 | B1 |
| 0.17 | B5 |

target: T4, wild type full length EGFR purified from A431 cells (human, UniProt P00533 25-1210); assay: competition ELISA, competitor Ab-5; set-up: concentration or dose not given beside the values
T4 construct: mature; Bought; coated on ELISA wells; also called full length EGFR receptor antigen; Sigma E3641
Description: The ELISA was adapted from the descriptions published in Ditzel et al, 1995, The Journal of Immunology, Vol 154, Issue 2 893-906.
An epitope blocking ELISA was performed by diluting full length EGFR receptor antigen to 0.5 μg/ml in PBS; and coating 50 μl/ELISA well overnight at 4° C. […] Finally wells were washed four times with PBS-T and plates were developed by adding 50 μl/well TMB and read at 620 nm every 5-15-30 min. The degree of inhibition was calculated from the formula: % inhibition=(1−(OD competition/OD no competition (PBS)))×100.

| % inhibition | Binder |
| --- | --- |
| 25% | B6 |
| 6% | B4 |
| 31% | B7 |
| 84% | B8 |
| -3% | B1 |
| 92% | B5 |
| 28% | B9 |
| 6% | B2 |
| 0% | B10 |
| 17% | B11 |

target: T3, full length human EGFR expressed on the …; assay: cell ELISA, IgG titrated on unfixed A431-NS cells
Description: Cell ELISA: The ELISA was performed essentially as described in example 15 with modifications. Cells were left unfixed to allow conformational EGFR flexibility after antibody additions. Briefly, 10,000 A431-NS cells were grown in 96 well ELISA plates containing DMEM with added 0.5% FCS and 1% P/S at 37° C., 5% CO₂ overnight. […] 25 μl DMEM containing 1% BSA was added to wells used for testing of IgG antibodies without added Fab fragments. […] Next, wells were washed four times with PBS and 50 μl of a secondary monoclonal Mouse-anti-Human (Fc specific) HRP conjugate diluted 1:5000 in DMEM containing 1% BSA was added and incubated on ice for 30 min. Finally wells were washed four times with PBS and plates developed by adding 50 μl/well TMB substrate and read at 620 nm every 5-15-30 min. After incubation with substrate the reaction was stopped by addition of 1 M H₂SO₄ and absorbance read at 450 nm. The functional affinity expressed as ED50 values were calculated by subtraction of the average background binding with secondary reagent only, followed by normalization of the binding curves by plotting % maximal binding relative to each antibody tested.
Investigations of antibody induced binding enhancements were determined by concurrent ELISA binding studies, employing same secondary antibody reagent and incubation times.

| Log ED50 | Binder |
| --- | --- |
| -0.24 | B1 |
| 0.33 | B5 |

target: T2, recombinant human EGFR extracellular …; assay: SPR, reference cycle of the run with mix N=6
Description: as §1

| Rumax reference cycle | Binder |
| --- | --- |
| 91 Ru | B3 |
| 135 Ru | B4 |
| 85 Ru | B1 |
| 87 Ru | B5 |
